Measured values reported in the supplement of paper PMC10567573.

B1: CDC14A (parent)
chain: GPHPKSKIENGYPLHAPEAYFPYF

Variants of: B1
Assay: protein stability index of a GFP-peptide fusion (GPS, HEK-293T) (PSI 1-6); higher = more stable
Conditions: c terminus: a fixed tail appended
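Also: lentivirally expressed fusions sorted by FACS into six bins by GFP to DsRed ratio, PSI derived from sequencing read proportions per bin multiplied by bin number.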

First: GPHPKSKIENGYPLAAPEAYFPYF [H15A]
Second: GPHPKSKIENGYPLFAPEAYFPYF [H15F]
The protein stability index of the first is higher: 2.45 for the first, 1.7 for the second.

Going from GPHPKSKIENGYPLKAPEAYFPYF [H15K] to GPHPKSKIENGYPLSAPEAYFPYF [H15S], the protein stability index rises from 2.7 to 2.83.

Going from GPHPKSKIENGYPLLAPEAYFPYF [H15L] to GPHPKSKIENGYPLPAPEAYFPYF [H15P], the protein stability index rises from 1.76 to 2.57.

First: GPHPKSKIENGYPLMAPEAYFPYF [H15M]
Second: GPHPKSKIENGYPLNAPEAYFPYF [H15N]
The protein stability index of the first is lower: 1.96 for the first, 2.37 for the second.

Compared with GPHPKSKIENGYPLGAPEAYFPYF [H15G], GPHPKSKIENGYPLEAPEAYFPYF [H15E] is higher in protein stability index: 2.59 for the first, 2.79 for the second.

Going from GPHPKSKIENGYPLRAPEAYFPYF [H15R] to GPHPKSKIENGYPLCAPEAYFPYF [H15C], the protein stability index falls from 2.29 to 2.23.

Compared with GPHPKSKIENGYPLTAPEAYFPYF [H15T], GPHPKSKIENGYPLIAPEAYFPYF [H15I] is lower in protein stability index: 2.74 for the first, 1.87 for the second.

Going from GPHPKSKIENGYPLWAPEAYFPYF [H15W] to GPHPKSKIENGYPLDAPEAYFPYF [H15D], the protein stability index rises from 1.2 to 2.63.

First: GPHPKSKIENGYPLYAPEAYFPYF [H15Y]
Second: GPHPKSKIENGYPLQAPEAYFPYF [H15Q]
The protein stability index of the first is lower: 1.68 for the first, 1.93 for the second.

First: GPHPKSKIENGYPLVAPEAYFPYF [H15V]
Second: GPHPKSKIENGTPLHAPEAYFPYF [Y12T]
The protein stability index of the first is lower: 2.53 for the first, 3.07 for the second.

Going from GPHPKSKIENGVPLHAPEAYFPYF [Y12V] to GPHPKSKIENGWPLHAPEAYFPYF [Y12W], the protein stability index falls from 2.19 to 1.86.

First: GPHPKSKIENGYPRHAPEAYFPYF [L14R]
Second: GPHPKSKIENGYPYHAPEAYFPYF [L14Y]
The protein stability index of the first is higher: 2.51 for the first, 1.89 for the second.

Going from GPHPKSKIENGYPMHAPEAYFPYF [L14M] to GPHPKSKIENGYPSHAPEAYFPYF [L14S], the protein stability index rises from 2.41 to 2.79.

Compared with GPHPKSKIENGYPKHAPEAYFPYF [L14K], GPHPKSKIENGYPCHAPEAYFPYF [L14C] is lower in protein stability index: 2.4 for the first, 1.67 for the second.

First: GPHPKSKIENGYPAHAPEAYFPYF [L14A]
Second: GPHPKSKIENGYPFHAPEAYFPYF [L14F]
The protein stability index of the first is higher: 2.46 for the first, 2.02 for the second.

Going from GPHPKSKIENGYPGHAPEAYFPYF [L14G] to GPHPKSKIENGYPTHAPEAYFPYF [L14T], the protein stability index falls from 2.65 to 2.45.

First: GPHPKSKIENGYPQHAPEAYFPYF [L14Q]
Second: GPHPKSKIENGYPDHAPEAYFPYF [L14D]
The protein stability index of the first is higher: 3.06 for the first, 2.59 for the second.

Going from GPHPKSKIENGYPNHAPEAYFPYF [L14N] to GPHPKSKIENGYPWHAPEAYFPYF [L14W], the protein stability index falls from 2.81 to 2.46.

Going from GPHPKSKIENGYPIHAPEAYFPYF [L14I] to GPHPKSKIENGYPEHAPEAYFPYF [L14E], the protein stability index rises from 2.27 to 3.65.

Going from GPHPKSKIENGYPVHAPEAYFPYF [L14V] to GPHPKSKIENGYPHHAPEAYFPYF [L14H], the protein stability index rises from 2.11 to 2.68.

First: GPHPKSKIENGYRLHAPEAYFPYF [P13R]
Second: GPHPKSKIENGYGLHAPEAYFPYF [P13G]
The protein stability index of the first is lower: 2.06 for the first, 2.39 for the second.

Compared with GPHPKSKIENGYMLHAPEAYFPYF [P13M], GPHPKSKIENGYELHAPEAYFPYF [P13E] is higher in protein stability index: 1.68 for the first, 2.94 for the second.

Going from GPHPKSKIENGYVLHAPEAYFPYF [P13V] to GPHPKSKIENGYNLHAPEAYFPYF [P13N], the protein stability index rises from 2.05 to 2.68.

Compared with GPHPKSKIENGYILHAPEAYFPYF [P13I], GPHPKSKIENGYHLHAPEAYFPYF [P13H] is higher in protein stability index: 1.43 for the first, 1.92 for the second.

First: GPHPKSKIENGYFLHAPEAYFPYF [P13F]
Second: GPHPKSKIENGYLLHAPEAYFPYF [P13L]
The protein stability index of the first is lower: 1.92 for the first, 1.95 for the second.

Compared with GPHPKSKIENGYTLHAPEAYFPYF [P13T], GPHPKSKIENGYYLHAPEAYFPYF [P13Y] is lower in protein stability index: 1.96 for the first, 1.88 for the second.

Going from GPHPKSKIENGYSLHAPEAYFPYF [P13S] to GPHPKSKIENGYWLHAPEAYFPYF [P13W], the protein stability index falls from 2.22 to 1.58.

Going from GPHPKSKIENGYQLHAPEAYFPYF [P13Q] to GPHPKSKIENGYALHAPEAYFPYF [P13A], the protein stability index rises from 2.43 to 2.57.

Compared with GPHPKSKIENGYCLHAPEAYFPYF [P13C], GPHPKSKIENGYKLHAPEAYFPYF [P13K] is lower in protein stability index: 1.97 for the first, 1.88 for the second.

Going from GPHPKSKIENGYDLHAPEAYFPYF [P13D] to GPHPKSKIENGYPLHRPEAYFPYF [A16R], the protein stability index falls from 2.81 to 2.35.

First: GPHPKSKIENGYPLHQPEAYFPYF [A16Q]
Second: GPHPKSKIENGYPLHHPEAYFPYF [A16H]
The protein stability index of the first is higher: 2.49 for the first, 2.32 for the second.

First: GPHPKSKIENGYPLHSPEAYFPYF [A16S]
Second: GPHPKSKIENGYPLHLPEAYFPYF [A16L]
The protein stability index of the first is higher: 2.14 for the first, 1.95 for the second.

First: GPHPKSKIENGYPLHNPEAYFPYF [A16N]
Second: GPHPKSKIENGYPLHVPEAYFPYF [A16V]
The protein stability index of the first is higher: 2.25 for the first, 2.21 for the second.

First: GPHPKSKIENGYPLHGPEAYFPYF [A16G]
Second: GPHPKSKIENGYPLHTPEAYFPYF [A16T]
The protein stability index of the first is higher: 2.77 for the first, 2.41 for the second.

First: GPHPKSKIENGYPLHDPEAYFPYF [A16D]
Second: GPHPKSKIENGYPLHKPEAYFPYF [A16K]
The protein stability index of the first is higher: 2.45 for the first, 2.12 for the second.

Compared with GPHPKSKIENGYPLHEPEAYFPYF [A16E], GPHPKSKIENGYPLHIPEAYFPYF [A16I] is lower in protein stability index: 2.4 for the first, 2.04 for the second.

Going from GPHPKSKIENGYPLHFPEAYFPYF [A16F] to GPHPKSKIENGYPLHWPEAYFPYF [A16W], the protein stability index rises from 1.82 to 1.99.

First: GPHPKSKIENGYPLHMPEAYFPYF [A16M]
Second: GPHPKSKIENGYPLHCPEAYFPYF [A16C]
The protein stability index of the first is lower: 2.01 for the first, 2.84 for the second.

Going from GPHPKSKIENGYPLHYPEAYFPYF [A16Y] to GPHPKSKIENGYPLHASEAYFPYF [P17S], the protein stability index falls from 2.29 to 1.87.

First: GPHPKSKIENGYPLHAAEAYFPYF [P17A]
Second: GPHPKSKIENGYPLHAHEAYFPYF [P17H]
The protein stability index of the first is higher: 2.21 for the first, 1.84 for the second.

Compared with GPHPKSKIENGYPLHAMEAYFPYF [P17M], GPHPKSKIENGYPLHANEAYFPYF [P17N] is higher in protein stability index: 2.07 for the first, 2.16 for the second.

First: GPHPKSKIENGYPLHAGEAYFPYF [P17G]
Second: GPHPKSKIENGYPLHAIEAYFPYF [P17I]
The protein stability index of the first is higher: 2.48 for the first, 2.06 for the second.

Going from GPHPKSKIENGYPLHAVEAYFPYF [P17V] to GPHPKSKIENGYPLHAQEAYFPYF [P17Q], the protein stability index rises from 1.92 to 2.14.

Going from GPHPKSKIENGYPLHACEAYFPYF [P17C] to GPHPKSKIENGYPLHAFEAYFPYF [P17F], the protein stability index falls from 2 to 1.87.

First: GPHPKSKIENGYPLHATEAYFPYF [P17T]
Second: GPHPKSKIENGYPLHALEAYFPYF [P17L]
The protein stability index of the first is higher: 3.15 for the first, 1.97 for the second.

Compared with GPHPKSKIENGYPLHAKEAYFPYF [P17K], GPHPKSKIENGYPLHAREAYFPYF [P17R] is lower in protein stability index: 3.2 for the first, 1.8 for the second.

First: GPHPKSKIENGYPLHADEAYFPYF [P17D]
Second: GPHPKSKIENGYPLHAEEAYFPYF [P17E]
The protein stability index of the first is higher: 2.71 for the first, 2.11 for the second.
